Key:
[1] = target: chd1_human CHD1 (UniProt O14646)
[2] = target: chd1_human CHD1 (UniProt O14646); remark: listed apart in the source

Sequence of UniProt O14646 (O14646 whole entry): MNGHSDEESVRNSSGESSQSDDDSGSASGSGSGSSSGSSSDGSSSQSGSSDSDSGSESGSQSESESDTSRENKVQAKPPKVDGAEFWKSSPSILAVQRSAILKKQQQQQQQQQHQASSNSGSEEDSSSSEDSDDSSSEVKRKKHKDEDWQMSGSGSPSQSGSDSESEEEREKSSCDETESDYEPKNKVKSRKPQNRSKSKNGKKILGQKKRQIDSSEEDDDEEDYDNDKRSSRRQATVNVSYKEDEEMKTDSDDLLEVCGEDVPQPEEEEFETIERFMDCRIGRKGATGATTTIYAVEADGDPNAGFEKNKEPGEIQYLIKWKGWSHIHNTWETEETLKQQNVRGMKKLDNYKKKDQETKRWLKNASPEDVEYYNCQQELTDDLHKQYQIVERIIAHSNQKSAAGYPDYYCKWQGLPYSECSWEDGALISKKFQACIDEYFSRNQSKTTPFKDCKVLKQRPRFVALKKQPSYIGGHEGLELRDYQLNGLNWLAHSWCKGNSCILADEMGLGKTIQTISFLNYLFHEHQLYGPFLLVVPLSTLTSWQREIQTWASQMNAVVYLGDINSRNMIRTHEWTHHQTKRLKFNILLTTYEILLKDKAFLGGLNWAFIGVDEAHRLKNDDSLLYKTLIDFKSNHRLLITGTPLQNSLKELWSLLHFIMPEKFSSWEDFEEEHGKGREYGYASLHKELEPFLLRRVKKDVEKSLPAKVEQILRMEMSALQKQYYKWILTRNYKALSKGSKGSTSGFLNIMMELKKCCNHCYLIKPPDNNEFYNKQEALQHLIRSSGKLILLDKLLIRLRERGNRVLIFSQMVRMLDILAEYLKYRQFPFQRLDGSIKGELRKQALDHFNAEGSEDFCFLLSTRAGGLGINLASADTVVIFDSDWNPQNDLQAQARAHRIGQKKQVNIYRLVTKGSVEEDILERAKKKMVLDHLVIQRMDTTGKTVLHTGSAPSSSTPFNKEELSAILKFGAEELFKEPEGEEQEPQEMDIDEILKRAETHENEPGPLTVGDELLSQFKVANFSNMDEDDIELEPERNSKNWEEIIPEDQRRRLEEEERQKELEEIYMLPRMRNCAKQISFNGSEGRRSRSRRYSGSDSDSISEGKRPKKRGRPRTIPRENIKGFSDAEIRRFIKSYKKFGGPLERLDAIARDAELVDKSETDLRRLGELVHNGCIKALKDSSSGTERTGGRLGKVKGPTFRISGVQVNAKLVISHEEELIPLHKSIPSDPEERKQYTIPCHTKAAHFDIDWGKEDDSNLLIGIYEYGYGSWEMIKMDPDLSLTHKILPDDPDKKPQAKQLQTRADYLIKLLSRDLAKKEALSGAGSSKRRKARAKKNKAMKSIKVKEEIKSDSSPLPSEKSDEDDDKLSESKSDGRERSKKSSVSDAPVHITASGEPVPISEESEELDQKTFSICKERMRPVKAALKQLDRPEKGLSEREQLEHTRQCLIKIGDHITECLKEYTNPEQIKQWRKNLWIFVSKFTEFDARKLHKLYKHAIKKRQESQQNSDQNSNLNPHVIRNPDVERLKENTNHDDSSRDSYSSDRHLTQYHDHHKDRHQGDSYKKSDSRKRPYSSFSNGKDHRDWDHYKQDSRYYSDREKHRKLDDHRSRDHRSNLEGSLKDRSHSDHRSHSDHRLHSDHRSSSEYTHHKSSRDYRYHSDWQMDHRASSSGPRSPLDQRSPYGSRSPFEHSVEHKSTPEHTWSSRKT

effect of a mutation on the interaction [1]	effect of a mutation on the interaction [2]	Substance
disrupting interaction strength		Lysine-specific histone demethylase 1A (Homo sapiens) (from UniProt O60341-1) K114A
	disrupting interaction strength	Lysine-specific histone demethylase 1A (Homo sapiens) (from UniProt O60341-1) R113A

Source: IntAct's records for PubMed 26751641
